From patent publication US12331106B2, “Anti-angiopoietin-2 antibodies that induce Tie2 activation” (Institute for Basic Science, priority 2018, dated 2025)

T1: hAng2 (Homo sapiens, UniProt O15123)
T1 sequence (O15123 19-496): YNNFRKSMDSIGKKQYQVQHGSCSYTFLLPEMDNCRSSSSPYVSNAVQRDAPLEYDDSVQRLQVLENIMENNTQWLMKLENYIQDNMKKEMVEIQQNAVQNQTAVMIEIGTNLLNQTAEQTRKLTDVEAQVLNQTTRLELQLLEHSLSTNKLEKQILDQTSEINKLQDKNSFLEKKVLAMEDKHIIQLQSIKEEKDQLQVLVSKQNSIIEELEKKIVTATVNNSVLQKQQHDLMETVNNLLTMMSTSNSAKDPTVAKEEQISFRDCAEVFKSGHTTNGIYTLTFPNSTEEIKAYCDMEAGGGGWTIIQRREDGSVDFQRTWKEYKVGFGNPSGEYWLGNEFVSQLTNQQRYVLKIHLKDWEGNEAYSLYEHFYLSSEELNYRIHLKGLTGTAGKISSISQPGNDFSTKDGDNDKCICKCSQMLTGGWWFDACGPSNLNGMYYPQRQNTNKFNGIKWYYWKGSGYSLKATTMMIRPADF


How the values were obtained:
[1] = test system: downstream signaling of the Tie2 receptor (Akt phosphorylation) in HUVECs; assay: Akt phosphorylation in HUVECs by mouse anti-Ang2 antibodies plus hAng2 (immunoblot); assay type: cell-based, human; conditions: serum-starved HUVECs; antibody combined with hAng2 1 μg/ml; 30 min
Protocol: To investigate whether the mouse anti-Ang2 antibodies induce the downstream signaling of the Tie2 receptor in endothelial cells, HUVECs (LONZA™) were treated with a combination of hAng2 protein and anti-Ang2 antibody, and then the level of Akt phosphorylation, the main downstream signaling protein of Tie2 receptor, was analyzed by immunoblotting. As a negative control group, the full-length hAng2 (R&D® Systems) alone was treated into the cells.
Specifically, HUVECs (1×10^5 cells/ml) were cultured in EGM-2 medium (LONZA™) at 37° C. in a 60 mm culture dish. Cells (90% confluency) were incubated with serum-free EBM-2 medium for 4 hrs for serum starvation. The serum-starved HUVECs were treated with a mixture of anti-Ang2 antibody and hAng2 protein (1 μg/ml, R&D® Systems) and further incubated for 30 min. The cells were washed with cold PBS, treated with lysis buffer, and lysed at 4° C. for 20 min. Then, the cell lysates were prepared by centrifugation at 13000 rpm for 15 min. 5× SDS sample buffer was added to the cell lysate and the cell lysate was boiled at 95° C. for 5 min. Then, the cell lysate was subjected to SDS PAGE and proteins were transferred to a nitrocellulose membrane (GE).
To investigate Akt phosphorylation, the blot was blocked with 5% skim milk-containing TBS-T for 1 hr at room temperature (RT), and incubated with anti-phospho-Akt antibody (S473) at 4° C. for about 8 hrs. The amount of phospho-Akt was visualized by an enhanced chemiluminescence (ECL). Then, the membrane was incubated in a stripping buffer (Thermo) for 15 min, and then reprobed with an anti-Akt antibody to determine the amount of total Akt.

hAng2 = biological target: T1, hAng2; assay: OCTET affinity of mouse monoclonal anti-Ang2 antibodies against hAng2; conditions: hAng2 fixed on AR2G biosensor, 1:1 binding model
Protocol: The affinity of mouse monoclonal antibody against hAng2 was measured using OCTET® system (ForteBio, real-time, label-free bio-layer interferometry system for determination of affinity, kinetics, and concentration). Specifically, buffer and samples were measured in total 200 μl/well using Black 96-well plates (96 well F-type black plates, Greiner). The biosensor used for affinity measurements was hydrated for 10 min before measurement with AR2G tip (ForteBio OCTET®). After the hydration, hAng2 was diluted in 10 mM sodium acetate, pH 6.0 buffer at a concentration of 10 μg/ml, fixed on AR2G biosensor, and blocked with 1M ethanolamine. The mouse monoclonal anti-Ang2 antibodies were diluted to 50, 25, 12.5, 6.25, 3.125, and 0 nM with 1× kinetic buffer, and subjected to association for 300 seconds and dissociation for 900 seconds. For affinity measurement (KD), the association rate (K-on) and dissociation rate (K-off) were analyzed by binding curve (global) and fitted to 1:1 binding model using OCTET® data analysis v9.0.0.10 program.

Molecule | Akt phosphorylation at S473 [1] | Koff (hAng2) [s⁻¹] | Kon (hAng2) [M⁻¹ s⁻¹]
2C8: mouse monoclonal anti-Ang2 antibody; VH SEQ ID NO: 19, VL SEQ ID NO: 21; hybridoma KCLRF-BP-00417 (antibody, V domains shown, Heavy Chain Variable Region; Light Chain Variable Region, mouse monoclonal anti-Ang2 antibody; hybridoma KCLRF-BP-00417) VH: QVQLQQSGPQLVRPGASVKISCKASGYSFTSYWMHWVKQRPGQGLEWIGMIDPSDSETRLNQKFKDKASLTVDKSSSTAYMQLSSPTSGDSAVYYCARRFYYGSDWYFDVWGAGSTVTVSS VL: DIVMTQSHKFMSTSVGDRVSITCKASQDVGTAVAWYQQKPGQSPKLLIYWASTRHTGVPDRFTGSGSGTDFTLTISNVQSEDLADYFCQQYSSYPLTFGSGTKLEIK | strongly induced | 3.54e-06 | 77800
4B9: mouse monoclonal anti-Ang2 antibody; VH SEQ ID NO: 9, VL SEQ ID NO: 11; hybridoma KCLRF-BP-00418 (antibody, V domains shown, Heavy Chain Variable Region; Light Chain Variable Region, mouse monoclonal anti-Ang2 antibody; hybridoma KCLRF-BP-00418) VH: EVQLVESGGGLVKPGGSLKLSCAASGFTFSDYYMYWVRQTPEKRLEWVATISVGGSFTYYPDSVKGRFTISRDNAKNNLYLQMSSLKSEDTAMYYCARDWGLRPWFVYWGQGTLVTVSA VL: DIVMTQSHKFMSTSVGDRVSITCKASQDVSTAVAWYQQKPGQSPKLLIYWASTRHTGVPDRFTGSGSGTDYTLTISSVQAEDLALYYCQQHYSTPPTFGSGTKLEIK | strongly induced | 5.04e-07 | 137000
